First the molecules themselves.
B1: SBT-040-G2-ATAC3 (antibody, human IgG2, kappa)
heavy: not shown
light: DIQMTQSPSSVSASVGDRVTITCRASQGIYSWLAWYQQKPGKAPNLLIYTASTLQSGVPSRFSGSGSGTDFTLTISSLQPEDFATYYCQQANIFPLTFGGGTKVEIKRTVAAPSVFIFPPSDEQLKSGTASVVCLLNNFYPREAKVQWKVDNALQSGNSQESVTEQDSKDSTYSLSSTLTLSKADYEKHKVYACEVTHQGLSSPVTKSFNRGEC
modifications: ATAC3 on lysines; sites not stated (heavy or light chain); ATAC3 (PEG linker with activated ester and immune-stimulatory compound) on lysines; sites not stated (heavy or light chain); DAR 3.3
B2: SBT-040-WT-ATAC22 (antibody, human IgG1, kappa)
heavy: not shown
light: B1 light
modifications: ATAC22 on reduced cysteines; sites not stated (heavy or light chain); ATAC22 (maleimidocaproyl-Val-Ala-PAB linker with immune-stimulatory compound) on reduced cysteines; sites not stated (heavy or light chain); DAR 4.6
B3: SBT-040-WT-ATAC4 (antibody, human IgG1, kappa)
heavy: not shown
light: B1 light
modifications: ATAC4 on lysines; sites not stated (heavy or light chain); ATAC4 (PEG linker with activated ester and immune-stimulatory compound) on lysines; sites not stated (heavy or light chain); DAR 4.6
notes: also called SBT-040-G1-ATAC4
B4: SBT-040-G2-ATAC4 (antibody, human IgG2, kappa)
heavy: not shown
light: B1 light
modifications: ATAC4 on lysines; sites not stated (heavy or light chain); ATAC4 (PEG linker with activated ester and immune-stimulatory compound) on lysines; sites not stated (heavy or light chain); DAR 2.9
B5: SBT-040-G2-ATAC11 (antibody, human IgG2, kappa)
heavy: not shown
light: B1 light
modifications: ATAC11 on reduced cysteines; sites not stated (heavy or light chain); ATAC11 (maleimide-PEG4 linker with immune-stimulatory compound) on reduced cysteines; sites not stated (heavy or light chain); DAR 4.0
B6: SBT-040-G2 (antibody, human IgG2, kappa)
heavy: not shown
light: B1 light
notes: also called SBT-040-G2WT
B7: SBT-040-G2-ATAC22 (antibody, human IgG2, kappa)
heavy: not shown
light: B1 light
modifications: ATAC22 on reduced cysteines; sites not stated (heavy or light chain); ATAC22 (maleimidocaproyl-Val-Ala-PAB linker with immune-stimulatory compound) on reduced cysteines; sites not stated (heavy or light chain); DAR 4.1
B8: SBT-040-WT-ATAC3 (antibody, human IgG1, kappa)
heavy: not shown
light: B1 light
modifications: ATAC3 on lysines; sites not stated (heavy or light chain); ATAC3 (PEG linker with activated ester and immune-stimulatory compound) on lysines; sites not stated (heavy or light chain); DAR 5.4
notes: also called SBT-040-G1-ATAC3
B9: SBT-040-VLPLL-ATAC11 (antibody, human IgG1, kappa)
heavy: not shown
light: B1 light
modifications: ATAC11 on reduced cysteines; sites not stated (heavy or light chain); ATAC11 (maleimide-PEG4 linker with immune-stimulatory compound) on reduced cysteines; sites not stated (heavy or light chain); DAR 2.9
B10: SBT-040-AAA-ATAC22 (antibody, human IgG1, kappa)
heavy: not shown
light: B1 light
modifications: ATAC22 on reduced cysteines; sites not stated (heavy or light chain); ATAC22 (maleimidocaproyl-Val-Ala-PAB linker with immune-stimulatory compound) on reduced cysteines; sites not stated (heavy or light chain); DAR 4.1
B11: SBT-040-VLPLL-ATAC22 (antibody, human IgG1, kappa)
heavy: not shown
light: B1 light
modifications: ATAC22 on reduced cysteines; sites not stated (heavy or light chain); ATAC22 (maleimidocaproyl-Val-Ala-PAB linker with immune-stimulatory compound) on reduced cysteines; sites not stated (heavy or light chain); DAR 3.9
B12: SBT-040-WT-ATAC11 (antibody, human IgG1, kappa)
heavy: not shown
light: B1 light
modifications: ATAC11 on reduced cysteines; sites not stated (heavy or light chain); ATAC11 (maleimide-PEG4 linker with immune-stimulatory compound) on reduced cysteines; sites not stated (heavy or light chain); DAR 4.5
B13: SBT-040-WT antibody (antibody, human IgG1, kappa)
heavy: not shown
light: B1 light
notes: also called SBT-040-G1
B14: SBT-040-AAA-ATAC11 (antibody, human IgG1, kappa)
heavy: not shown
light: B1 light
modifications: ATAC11 on reduced cysteines; sites not stated (heavy or light chain); ATAC11 (maleimide-PEG4 linker with immune-stimulatory compound) on reduced cysteines; sites not stated (heavy or light chain); DAR 2.9

T3 sequence (P12314 16-288 limits assumed): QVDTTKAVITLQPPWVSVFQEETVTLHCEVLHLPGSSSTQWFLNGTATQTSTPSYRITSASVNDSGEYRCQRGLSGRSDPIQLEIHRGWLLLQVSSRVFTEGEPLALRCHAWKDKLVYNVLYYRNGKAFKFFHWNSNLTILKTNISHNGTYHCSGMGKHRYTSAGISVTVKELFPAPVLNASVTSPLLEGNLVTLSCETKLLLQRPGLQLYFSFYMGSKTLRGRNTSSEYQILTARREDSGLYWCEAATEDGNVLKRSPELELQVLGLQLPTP
T1 sequence (P25942 21-193): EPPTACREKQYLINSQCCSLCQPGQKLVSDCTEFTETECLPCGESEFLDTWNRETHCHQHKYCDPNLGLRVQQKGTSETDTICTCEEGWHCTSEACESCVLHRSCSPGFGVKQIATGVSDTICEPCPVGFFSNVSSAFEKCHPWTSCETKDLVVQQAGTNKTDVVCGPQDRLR
T4 sequence (O75015 17-200 limits assumed): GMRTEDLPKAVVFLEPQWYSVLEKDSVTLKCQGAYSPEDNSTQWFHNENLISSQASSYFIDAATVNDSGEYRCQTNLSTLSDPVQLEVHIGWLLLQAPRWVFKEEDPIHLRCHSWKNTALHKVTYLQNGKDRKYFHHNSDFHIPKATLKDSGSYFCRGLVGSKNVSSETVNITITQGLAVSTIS

The first test concerns the target T1, Human CD40 ECD monomer (human, UniProt P25942 21-193).
T1 construct: extracellular domain; Recombinant monomeric CD40 ECD used as analyte; also called monomeric human CD40; CD40 Extracellular Domain (ECD)
Briefly: BLI (Octet Red 96), antibody on anti-human Fc sensor, monomeric CD40 ECD as analyte, 1:1 fit. On the procedure:
(§1) Analysis of CD40 ECD interaction was performed using Octet Red 96 instrument (ForteBio). The Octet systems use propriety BLI to analyze biomolecular interaction. […] The experiments were comprised of 5 steps: (1) baseline acquisition (60 s); (2) antibodies and antibody immune-stimulatory compound conjugates loading onto anti-human Fc biosensor (120 s); (3) second baseline acquisition (60 s); (4) association of interacting monomeric CD40 ECD protein for kₒₙ measurement (120 s); (5) Dissociation of interacting monomeric CD40 ECD for koff measurement (360 s). The interacting monomeric CD40 ECD were used at 5-6 concentrations of 3-fold concentration series. Data were analyzed using Octet Data Analysis Sofware 9.0 (ForteBio) and fitted to the 1:1 binding model. Equilibrium dissociation constants (KD) were calculated by the […].
With B1, the Kd was 0.0073 µM.
On the same count and under the same terms, as for B2, the figure is 0.008 µM; as for B3, 0.0093 µM; as for B4, 0.0087 µM.
In turn, B5 yielded a Kd of 0.0074 µM.
Still for that read-out and setting: as for B6, the figure is 0.0077 µM; as for B7, 0.0072 µM; as for B8, 0.009 µM.
The same measure, in the same setting: as for B9, the figure is 0.0076 µM; as for B10, 0.005 µM.
B11 came in with a Kd of 0.0075 µM.

In another test the target is T2, Rhesus CD40 ECD monomer (rhesus, UniProt F6SNI1 21-193).
T2 construct: Recombinant monomeric CD40 ECD used as analyte; also called monomeric rhesus CD40
T2 sequence (F6SNI1 entry or part of it limits assumed): as the sequence (P25942 21-193) above, with G43S, H56R, W89L, T92M, A95S, L101P, S106L, H142R, L172Q counted along it
The test is described as above. On the procedure:
as §1
On to B12, for which the Kd stood at 0.0135 µM.
The molecule B1 displayed a Kd of 0.0115 µM.
Same read-out and setting: under B2 stands 0.0136 µM.
On the same count and under the same terms, under B3 stands 0.0129 µM; under B4, 0.0136 µM.
On the same count and under the same terms, as for B5, the figure is 0.014 µM.
B6 showed a Kd of 0.0124 µM.
On to B13, for which the Kd was found to be 0.014 µM.
Same read-out and setting: under B7 stands 0.0152 µM.
B8 gave a Kd of 0.0131 µM.

Another test concerns the target T3, human FcγRI (human, UniProt P12314 16-288, limits assumed).
T3 construct: Monomeric FcγR used as analyte in solution; also called CD64
Briefly: BLI (Octet Red 96), antibody on anti-human Fc sensor, monomeric FcγR as analyte. On the procedure:
Human FcγR interaction analysis was also performed using Octet Red 96 instrument. […] The experiments were comprised of 5 steps: (1) baseline acquisition (60 s); (2) anti-CD40 antibodies or anti-CD40 antibody immune-stimulatory compound conjugates loading onto anti-human Fc biosensor (120 s); (3) second baseline acquisition (60 s); (4) association of interacting protein for kₒₙ measurement (120 s); (5) dissociation of interacting FcγR for koff measurement (300 s). The interacting monomeric FcγR were used at 5-6 concentrations of 3-fold concentration series. Data were analyzed using Octet Data Analysis Software 9.0 (ForteBio) and fitted to the 1:1 binding model. Equilibrium dissociation constants (KD) were calculated by the […].
For the molecule B1, the binding result was “no binding (tested: 1.2 nM to 1 µM FcγR)”.
With B4, the binding result is listed as “no binding (tested: 1.2 nM to 1 µM FcγR)”.
B5: the binding result is on record as “no binding (tested: 1.2 nM to 1 µM FcγR)”.
On the same count and under the same terms, under B6 stands “no binding (tested: 1.2 nM to 1 µM FcγR)”; under B7, “no binding (tested: 1.2 nM to 1 µM FcγR)”.

Another test concerns the target T4, human FcγRIIIB (human, UniProt O75015 17-200).
T4 construct: also called CD16b
The test is described as follows: BLI (Octet Red 96), FcγR on anti-his tag sensor, antibody as analyte, avidity fit. On the procedure:
For human FcγRIIB/C, FcγRIIIA F158, FcγRIIIA V158 and FcγRIIIB interaction studies, the proteins were immobilized on anti-his tag biosensors and incubated with varying concentration of unconjugated anti-CD40 antibodies or anti-CD40 antibody immune-stimulatory compound conjugates ranging from 0.04 μM to 8 μM. […] The experiment comprised of 5 steps: (1) baseline acquisition (60 s); (2) anti-CD40 antibodies or anti-CD40 antibody immune-stimulatory compound conjugates loading onto […] (120 s); (3) second baseline acquisition (60 s); (4) association of interacting protein for kₒₙ measurement (120 s); (5) dissociation of interacting FcγR for koff measurement (300 s). The interacting anti-CD40 antibodies or anti-CD40 antibody immune-stimulatory compound conjugates were used at 4 concentrations of 2 fold concentration series. Data were analyzed using Octet Data Analysis Software 9.0 (ForteBio) and fitted to the avidity binding model. Equilibrium dissociation constants (KD) were calculated by the […].
(In general: In BLI a coated tip is dipped into the sample, and binding shifts an interference pattern.)
Regarding B12, the Kd came out at 5 µM.
For B1, the Kd was 3.93 µM.
Take B2: the Kd stood at 2.71 µM.
B3 registered a Kd of 3.24 µM.
The same measure, in the same setting: under B13 stands 3.6 µM.
As for B8, the Kd amounted to 1.5 µM.
Still for that read-out and setting: under B14 stands 3.83 µM.

The values above are taken from US20170298139A1 (OPI VI IP HOLDCO, published 2017).
